{"source": "paper PMC3991732", "origin": "cited, not measured here", "target": "ubiquitin (Homo sapiens) (UniProt P0CG48)", "assay": "NMR", "data": [{"substance": "CD2AP SH3-C (from UniProt Q9Y5K6)", "values": [{"measurement": "Kd", "value": 132, "unit": "µM"}]}]}
